# Data taken from US20080113383A1 (FIBRO GEN, published 2008).
# Where no end group is shown, it is not given here. [ ]: non-standard residue; d: D form. ΔPro = O=C(O)[C@@H]1C=CCN1; Aze = O=C(O)[C@@H]1CCN1
# Biological target: EGLN3
# Test: cell-based or functional assay
row,Binder,Activity (%)
1,DTDLDLEALA[ΔPro]YIPADDDFQ [DTDLDLEALA4YIPADDDFQ],74.4
2,DTDLDVEAYA[Aze]YIPADDDFQ [DTDLDVEAYA8YIPADDDFQ],33.5
3,DTDLDLEALA[b‑thioproline]YIPADDDFQ [DTDLDLEALA5YIPADDDFQ],11.1
4,DTDLDTEAYA[Aze]YIPADDDFQ [DTDLDTEAYA8YIPADDDFQ],29.7
5,DTDLDTEAVA[Aze]YIPADDDFQ [DTDLDTEAVA8YIPADDDFQ],10.3
6,DTDLDTEAFA[Aze]YIPADDDFQ [DTDLDTEAFA8YIPADDDFQ],18.7
7,DTDLDVEAVA[Aze]YIPADDDFQ [DTDLDVEAVA8YIPADDDFQ],20.6
8,DTDLDAEAVA[Aze]YIPADDDFQ [DTDLDAEAVA8YIPADDDFQ],17.2
9,"DTDLDLEMLAPYIPMDDDFQ [Control peptide DTD20, DTDLDLEMLApYIPMDDDFQ]",119
10,DTDLDVEAFA[Aze]YIPADDDFQ [DTDLDVEAFA8YIPADDDFQ],24.5
11,DTDLDIEAIA[Aze]YIPADDDFQ [DTDLDIEAIA8YIPADDDFQ],31.2
12,DTDLDIEAVA[Aze]YIPADDDFQ [DTDLDIEAVA8YIPADDDFQ],18.8
13,DTDLDTEALA[Aze]YIPADDDFQ [DTDLDTEALA8YIPADDDFQ],80.1
14,DTDLDVEAIA[Aze]YIPADDDFQ [DTDLDVEAIA8YIPADDDFQ],14.8
15,DTDLDAEAIA[Aze]YIPADDDFQ [DTDLDAEAIA8YIPADDDFQ],9.72
16,DTDLDLEALA[Aze]YIPADDDFQ [DTDLDLEALA8YIPADDDFQ],169

# Biological target: EGLN1
# Test: cell-based or functional assay
row,Binder,Activity (%)* [%]
1,DTDLDLEAVAPYIPADDDFQ (not fully specified; printed as DTDLDLEAVApYIPADDDFQ) [DTDLDLEAVApYIPADDDFQ],99.2
2,DTDLDLEACAPYIPADDDFQ [DTDLDLEACApYIPADDDFQ],41.3
3,DTDLDVEAFAPYIPADDDFQ (not fully specified; printed as DTDLDVEAFApYIPADDDFQ) [DTDLDVEAFApYIPADDDFQ],34.1
4,DTDLDVEAYAPYIPADDDFQ (not fully specified; printed as DTDLDVEAYApYIPADDDFQ) [DTDLDVEAYApYIPADDDFQ],35.5
5,DTDLDIEALAPYIPADDDFQ [DTDLDIEALApYIPADDDFQ],50.7
6,DTDLDVEAIAPYIPADDDFQ (not fully specified; printed as DTDLDVEAIApYIPADDDFQ) [DTDLDVEAIApYIPADDDFQ],45.3
7,DTDLDSEALAPYIPADDDFQ (not fully specified; printed as DTDLDSEALApYIPADDDFQ) [DTDLDSEALApYIPADDDFQ],34.7
8,DTDLDLEAWAPYIPADDDFQ (not fully specified; printed as DTDLDLEAWApYIPADDDFQ) [DTDLDLEAWApYIPADDDFQ],50.4
9,DTDLDLEAAAPYIPADDDFQ [DTDLDLEAAApYIPADDDFQ],36.1
10,"DTDLDLEMLAPYIPMDDDFQ [Control peptide DTD20, DTDLDLEMLApYIPMDDDFQ]",100
11,DTDLDGEALAPYIPADDDFQ [DTDLDGEALApYIPADDDFQ],37.3
12,DTDLDPEALAPYIPADDDFQ (not fully specified; printed as DTDLDPEALApYIPADDDFQ) [DTDLDPEALApYIPADDDFQ],40.8
13,DTDLDCEALAPYIPADDDFQ [DTDLDCEALApYIPADDDFQ],44.7
14,DTDLDLEANAPYIPADDDFQ [DTDLDLEANApYIPADDDFQ],49.2
15,DTDLDEEALAPYIPADDDFQ [DTDLDEEALApYIPADDDFQ],49.6
16,DTDLDAEAVAPYIPADDDFQ [DTDLDAEAVApYIPADDDFQ],34
17,DTDLDLEAHAPYIPADDDFQ [DTDLDLEAHApYIPADDDFQ],34

# Biological target: EGLN3
# Test: cell-based or functional assay
# Remark: another data set of the same source
row,Binder,Activity (%)* [%]
1,DTDLDLEAVAPYIPADDDFQ (not fully specified; printed as DTDLDLEAVApYIPADDDFQ) [DTDLDLEAVApYIPADDDFQ],117
2,DTDLDLEACAPYIPADDDFQ [DTDLDLEACApYIPADDDFQ],49.4
3,DTDLDVEAFAPYIPADDDFQ (not fully specified; printed as DTDLDVEAFApYIPADDDFQ) [DTDLDVEAFApYIPADDDFQ],44.2
4,DTDLDVEAYAPYIPADDDFQ (not fully specified; printed as DTDLDVEAYApYIPADDDFQ) [DTDLDVEAYApYIPADDDFQ],44.5
5,DTDLDIEALAPYIPADDDFQ [DTDLDIEALApYIPADDDFQ],149
6,DTDLDVEAIAPYIPADDDFQ (not fully specified; printed as DTDLDVEAIApYIPADDDFQ) [DTDLDVEAIApYIPADDDFQ],43.3
7,DTDLDSEALAPYIPADDDFQ (not fully specified; printed as DTDLDSEALApYIPADDDFQ) [DTDLDSEALApYIPADDDFQ],61.3
8,DTDLDLEAWAPYIPADDDFQ (not fully specified; printed as DTDLDLEAWApYIPADDDFQ) [DTDLDLEAWApYIPADDDFQ],37.3
9,DTDLDLEAAAPYIPADDDFQ [DTDLDLEAAApYIPADDDFQ],30.2
10,"DTDLDLEMLAPYIPMDDDFQ [Control peptide DTD20, DTDLDLEMLApYIPMDDDFQ]",119
11,DTDLDGEALAPYIPADDDFQ [DTDLDGEALApYIPADDDFQ],40.9
12,DTDLDPEALAPYIPADDDFQ (not fully specified; printed as DTDLDPEALApYIPADDDFQ) [DTDLDPEALApYIPADDDFQ],76.6
13,DTDLDCEALAPYIPADDDFQ [DTDLDCEALApYIPADDDFQ],75.8
14,DTDLDLEANAPYIPADDDFQ [DTDLDLEANApYIPADDDFQ],42.5
15,DTDLDEEALAPYIPADDDFQ [DTDLDEEALApYIPADDDFQ],80.8
16,DTDLDAEAVAPYIPADDDFQ [DTDLDAEAVApYIPADDDFQ],35.6
17,DTDLDLEAHAPYIPADDDFQ [DTDLDLEAHApYIPADDDFQ],27

# Biological target: EGLN2
# Test: cell-based or functional assay
row,Binder,Activity (%)* [%]
1,DTDLDLEAVAPYIPADDDFQ (not fully specified; printed as DTDLDLEAVApYIPADDDFQ) [DTDLDLEAVApYIPADDDFQ],86.8
2,DTDLDLEACAPYIPADDDFQ [DTDLDLEACApYIPADDDFQ],40.4
3,DTDLDVEAFAPYIPADDDFQ (not fully specified; printed as DTDLDVEAFApYIPADDDFQ) [DTDLDVEAFApYIPADDDFQ],37.5
4,DTDLDVEAYAPYIPADDDFQ (not fully specified; printed as DTDLDVEAYApYIPADDDFQ) [DTDLDVEAYApYIPADDDFQ],32.4
5,DTDLDIEALAPYIPADDDFQ [DTDLDIEALApYIPADDDFQ],43.7
6,DTDLDVEAIAPYIPADDDFQ (not fully specified; printed as DTDLDVEAIApYIPADDDFQ) [DTDLDVEAIApYIPADDDFQ],36.6
7,DTDLDSEALAPYIPADDDFQ (not fully specified; printed as DTDLDSEALApYIPADDDFQ) [DTDLDSEALApYIPADDDFQ],23.8
8,DTDLDLEAWAPYIPADDDFQ (not fully specified; printed as DTDLDLEAWApYIPADDDFQ) [DTDLDLEAWApYIPADDDFQ],42.4
9,DTDLDLEAAAPYIPADDDFQ [DTDLDLEAAApYIPADDDFQ],30.9
10,"DTDLDLEMLAPYIPMDDDFQ [Control peptide DTD20, DTDLDLEMLApYIPMDDDFQ]",100
11,DTDLDGEALAPYIPADDDFQ [DTDLDGEALApYIPADDDFQ],32
12,DTDLDPEALAPYIPADDDFQ (not fully specified; printed as DTDLDPEALApYIPADDDFQ) [DTDLDPEALApYIPADDDFQ],37.4
13,DTDLDCEALAPYIPADDDFQ [DTDLDCEALApYIPADDDFQ],48.8
14,DTDLDLEANAPYIPADDDFQ [DTDLDLEANApYIPADDDFQ],37.7
15,DTDLDEEALAPYIPADDDFQ [DTDLDEEALApYIPADDDFQ],44.3
16,DTDLDAEAVAPYIPADDDFQ [DTDLDAEAVApYIPADDDFQ],26.3
17,DTDLDLEAHAPYIPADDDFQ [DTDLDLEAHApYIPADDDFQ],32.3

# Biological target: EGLN1
# Test: cell-based or functional assay
# Remark: another data set of the same source
row,Binder,Activity (%)* [%]
1,DTDLDLEALA[ΔPro]YIPADDDFQ [DTDLDLEALA4YIPADDDFQ],124
2,DTDLDVEAYA[Aze]YIPADDDFQ [DTDLDVEAYA8YIPADDDFQ],32.3
3,DTDLDLEALA[b‑thioproline]YIPADDDFQ [DTDLDLEALA5YIPADDDFQ],8.93
4,DTDLDTEAYA[Aze]YIPADDDFQ [DTDLDTEAYA8YIPADDDFQ],25.1
5,DTDLDTEAFA[Aze]YIPADDDFQ [DTDLDTEAFA8YIPADDDFQ],17.4
6,DTDLDAEAAA[Aze]YIPADDDFQ [DTDLDAEAAA8YIPADDDFQ],10.3
7,DTDLDAEAVA[Aze]YIPADDDFQ [DTDLDAEAVA8YIPADDDFQ],10
8,"DTDLDLEMLAPYIPMDDDFQ [Control peptide DTD20, DTDLDLEMLApYIPMDDDFQ]",100
9,DTDLDVEAFA[Aze]YIPADDDFQ [DTDLDVEAFA8YIPADDDFQ],21.2
10,DTDLDIEAIA[Aze]YIPADDDFQ [DTDLDIEAIA8YIPADDDFQ],18.3
11,DTDLDIEAVA[Aze]YIPADDDFQ [DTDLDIEAVA8YIPADDDFQ],6.35
12,DTDLDTEALA[Aze]YIPADDDFQ [DTDLDTEALA8YIPADDDFQ],11.4
13,DTDLDVEAIA[Aze]YIPADDDFQ [DTDLDVEAIA8YIPADDDFQ],7.96
14,DTDLDAEAIA[Aze]YIPADDDFQ [DTDLDAEAIA8YIPADDDFQ],6.68
15,DTDLDAEATA[Aze]YIPADDDFQ [DTDLDAEATA8YIPADDDFQ],7.6
16,DTDLDLEALA[Aze]YIPADDDFQ [DTDLDLEALA8YIPADDDFQ],78.9

# Biological target: EGLN2
# Test: cell-based or functional assay
# Remark: another data set of the same source
row,Binder,Activity (%)* [%]
1,DTDLDLEALA[ΔPro]YIPADDDFQ [DTDLDLEALA4YIPADDDFQ],173
2,DTDLDVEAYA[Aze]YIPADDDFQ [DTDLDVEAYA8YIPADDDFQ],27.2
3,DTDLDLEALA[b‑thioproline]YIPADDDFQ [DTDLDLEALA5YIPADDDFQ],7.9
4,DTDLDTEAYA[Aze]YIPADDDFQ [DTDLDTEAYA8YIPADDDFQ],17
5,DTDLDTEAFA[Aze]YIPADDDFQ [DTDLDTEAFA8YIPADDDFQ],8.9
6,DTDLDAEAAA[Aze]YIPADDDFQ [DTDLDAEAAA8YIPADDDFQ],4.16
7,DTDLDAEAVA[Aze]YIPADDDFQ [DTDLDAEAVA8YIPADDDFQ],3.36
8,"DTDLDLEMLAPYIPMDDDFQ [Control peptide DTD20, DTDLDLEMLApYIPMDDDFQ]",100
9,DTDLDVEAFA[Aze]YIPADDDFQ [DTDLDVEAFA8YIPADDDFQ],13.9
10,DTDLDIEAIA[Aze]YIPADDDFQ [DTDLDIEAIA8YIPADDDFQ],10
11,DTDLDIEAVA[Aze]YIPADDDFQ [DTDLDIEAVA8YIPADDDFQ],1.96
12,DTDLDTEALA[Aze]YIPADDDFQ [DTDLDTEALA8YIPADDDFQ],8.52
13,DTDLDVEAIA[Aze]YIPADDDFQ [DTDLDVEAIA8YIPADDDFQ],2.81
14,DTDLDAEAIA[Aze]YIPADDDFQ [DTDLDAEAIA8YIPADDDFQ],1.88
15,DTDLDAEATA[Aze]YIPADDDFQ [DTDLDAEATA8YIPADDDFQ],1.55
16,DTDLDLEALA[Aze]YIPADDDFQ [DTDLDLEALA8YIPADDDFQ],62
